According to patent US20190040107:

T1: astexin-3 ΔC2
T1 chain: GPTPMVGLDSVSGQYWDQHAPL

T2: astexin-3 ΔC1
T2 chain: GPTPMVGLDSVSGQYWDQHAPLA

T3: astexin-3 (lassoed, full-length)
T3 chain: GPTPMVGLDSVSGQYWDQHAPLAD

T4: astexin-2 ΔC3 (lassoed, threaded)
T4 chain: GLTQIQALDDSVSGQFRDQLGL

T5: astexin-1
T5 chain: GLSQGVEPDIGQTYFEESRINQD

T6: astexin-2 ΔC4 (lassoed, threaded)
T6 chain: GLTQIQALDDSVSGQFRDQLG

T7: unthreaded astexin-2 ΔC3
T7 chain: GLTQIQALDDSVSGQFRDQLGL

T8: unthreaded astexin-2 ΔC4
T8 chain: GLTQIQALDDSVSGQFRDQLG


Key:
astexin-3 ΔC2 = molecular target: T1, astexin-3 ΔC2
astexin-3 ΔC1 = molecular target: T2, astexin-3 ΔC1
[1] = molecular target: T3, astexin-3 (lassoed, full-length)
[2] = molecular target: T4, astexin-2 ΔC3 (lassoed, threaded)
astexin-1 = molecular target: T5, astexin-1
[3] = molecular target: T6, astexin-2 ΔC4 (lassoed, threaded)
unthreaded astexin-2 ΔC3 = molecular target: T7, unthreaded astexin-2 ΔC3
unthreaded astexin-2 ΔC4 = molecular target: T8, unthreaded astexin-2 ΔC4

| Protein | hydrolysis (HPLC retention time, MALDI MS) after 6 hours with 860 nM AtxE2 (astexin-3 ΔC2) | hydrolysis (HPLC retention time, MALDI MS) after 6 hours with 860 nM AtxE2 (astexin-3 ΔC1) | Km [1] | hydrolysis (HPLC retention time, MALDI MS) after 6 hours with 860 nM AtxE2 [1] | kcat [1] | kcat/Km [1] | hydrolysis (HPLC retention time) of purified peptide with 424 nM AtxE2 [2] | hydrolysis (HPLC retention time, MALDI MS) after 6 hours with 860 nM AtxE2 [2] | hydrolysis (HPLC retention time, MS) after 6 hours with 860 nM AtxE2 (astexin-1) | hydrolysis (HPLC retention time, MALDI MS) after 6 hours with 860 nM AtxE2 [3] | hydrolysis (HPLC retention time) in lysate extract treated with AtxE2 (unthreaded astexin-2 ΔC3) | hydrolysis (HPLC retention time) of purified, heat-treated peptide with 424 nM AtxE2 (unthreaded astexin-2 ΔC3) | hydrolysis (HPLC retention time) in lysate extract treated with AtxE2 (unthreaded astexin-2 ΔC4) | activity toward astexin-3 in vitro [1] |
| --- | --- | --- | --- | --- | --- | --- | --- | --- | --- | --- | --- | --- | --- | --- |
| C-terminally His-tagged AtxE2 (protein) AAREAPPVTPEVLVRLADIGTMSASETTPLLSLSPDGRYVAFQVRQADPVTNLNVFRMVVKATDGATDAIDVDVGGEYLFWTIPSWGYARNAPSGANLTIQPRWSPSGTHLAYLRQDQGRVRVWRASVKGEGASPVIEDAYDIEDVQWLDDNTLIYSGRPGFVEAEAEIEREGRRGWVYDERFHPLTGARPRVLEPISIVYQVLDLKTGTRRAATPTEVARLREKPDPLRAMVGRTTFSVSRTDPQNINAPTTLVARRGEGEPVRCDEEACQNITRMWGDETANVLYFLRREGWASNEMALYRMPADALKPVRIWHATGLLQGCERQAKRLICAQESALQPRRLVTLNLTSGQMSPLYDPNPDLSRYRLPKVERLTLRNRNGIEVFSDLVLPPDYQLGTRLPLVIVQYSSRGFLRGGTGDENPILPLATAGFAVLSFHSPRSEASYQRFTSPIAQSKAEYSNWRNRWNILHTLEDLIDDLDRRGVIDPARVGLTGLSDGATTVHFGLINSHRFAAAVTSSCCTDSFTASVMNGPRISGALKAYGIETDQADDGPFWAATSFVVNASRLDTPLLIQSADEEYLGALPGFTALQQARKPVELIIYPNEHHVKWQPAHRLAVYNRTIDWFRFWLMDQSDPAPDKAAQYDRWRALRALRQKSPSPTPAP | an increase of 18 mass units for all astexin-2 and astexin-3 species, corresponding to the addition of a water molecule via the cleavage of a single amide bond | an increase of 18 mass units for all astexin-2 and astexin-3 species, corresponding to the addition of a water molecule via the cleavage of a single amide bond | Km equal to 131 µM | an increase of 18 mass units for all astexin-2 and astexin-3 species, corresponding to the addition of a water molecule via the cleavage of a single amide bond | kcat equal to 0.38 s^-1 | kcat/Km value for AtxE2 to be 2.9×10^3 M^-1 s^-1 | only the threaded species exhibited a change in retention time consistent with hydrolysis of the isopeptide bond | an increase of 18 mass units for all astexin-2 and astexin-3 species, corresponding to the addition of a water molecule via the cleavage of a single amide bond | the retention time of astexin-1 did not shift after incubation with AtxE2 and no molecular weight difference was observed in the MS | an increase of 18 mass units for all astexin-2 and astexin-3 species, corresponding to the addition of a water molecule via the cleavage of a single amide bond | the retention times for these unthreaded species did not change after incubation with AtxE2 | only the threaded species exhibited a change in retention time consistent with hydrolysis of the isopeptide bond | the retention times for these unthreaded species did not change after incubation with AtxE2 |  |
| His-tagged S527A mutant of AtxE2 (protein) AAREAPPVTPEVLVRLADIGTMSASETTPLLSLSPDGRYVAFQVRQADPVTNLNVFRMVVKATDGATDAIDVDVGGEYLFWTIPSWGYARNAPSGANLTIQPRWSPSGTHLAYLRQDQGRVRVWRASVKGEGASPVIEDAYDIEDVQWLDDNTLIYSGRPGFVEAEAEIEREGRRGWVYDERFHPLTGARPRVLEPISIVYQVLDLKTGTRRAATPTEVARLREKPDPLRAMVGRTTFSVSRTDPQNINAPTTLVARRGEGEPVRCDEEACQNITRMWGDETANVLYFLRREGWASNEMALYRMPADALKPVRIWHATGLLQGCERQAKRLICAQESALQPRRLVTLNLTSGQMSPLYDPNPDLSRYRLPKVERLTLRNRNGIEVFSDLVLPPDYQLGTRLPLVIVQYSSRGFLRGGTGDENPILPLATAGFAVLSFHSPRSEASYQRFTSPIAQSKAEYSNWRNRWNILHTLEDLIDDLDRRGVIDPARVGLTGLADGATTVHFGLINSHRFAAAVTSSCCTDSFTASVMNGPRISGALKAYGIETDQADDGPFWAATSFVVNASRLDTPLLIQSADEEYLGALPGFTALQQARKPVELIIYPNEHHVKWQPAHRLAVYNRTIDWFRFWLMDQSDPAPDKAAQYDRWRALRALRQKSPSPTPAP |  |  |  |  |  |  |  |  |  |  |  |  |  | AtxE2 S527A had no activity toward astexin-3 |
